Test results taken from patent US20230265146A1 (AMUNIX PHARMACEUTICALS, published 2023).

Molecular target: T1, human IL-12 receptor on HEK-Blue IL-12 reporter cells (human, UniProt P42701 24-662; Q99665 24-862)
T1 construct: whole, on cells; also called 293 HEK-IL-12 reporter cells; HEK-Blue IL12 reporter cells (InvivoGen)
Assay: Flow cytometry (MFI AF488) on HEK-Blue IL-12 reporter cells; bound protein detected with a fluorescent anti-His-tag antibody
Method: HEK-Blue IL-12 reporter cells (Invivogen, as described in Example 8) that express the human IL-12 receptor were used to assess binding of the IL12 constructs to the IL-12 receptor. Increasing concentrations of an exemplified “XTENylated IL12” construct (SEQ ID NO: 2) (1 μM) containing a recombinant single chain mouse IL12 with an N-terminal his-tag plus an XTEN sequence followed by a release segment sequence were incubated with 50,000 293HEK-IL-12 reporter cells that were subsequently washed and surface bound IL12 monitored by flow cytometry using a fluorescent-labelled anti-His-tag antibody for detection. Binding by the XTENylated IL12 was compared to binding of the reference IL-12 construct (SEQ ID NO:4) that contained a recombinant single chain mouse IL-12 and a C-terminal His-tag. Due to release of the His-tag from the XTENylated IL-12 following its activation with human matrix metallopeptidase 9 (MMP9), we were unable to assess IL-12 binding of its activated form in this assay. The XTEN fragment released by MMP9 cleavage retained the His-tag and was used as a specificity control for binding. As shown in FIGS. 9A-9B, the XTEN, when present in the fusion protein masked the cytokine binding to its corresponding IL12 receptor.

T1 sequence (Q99665 24-862, chain 2 of 2, other chains not shown): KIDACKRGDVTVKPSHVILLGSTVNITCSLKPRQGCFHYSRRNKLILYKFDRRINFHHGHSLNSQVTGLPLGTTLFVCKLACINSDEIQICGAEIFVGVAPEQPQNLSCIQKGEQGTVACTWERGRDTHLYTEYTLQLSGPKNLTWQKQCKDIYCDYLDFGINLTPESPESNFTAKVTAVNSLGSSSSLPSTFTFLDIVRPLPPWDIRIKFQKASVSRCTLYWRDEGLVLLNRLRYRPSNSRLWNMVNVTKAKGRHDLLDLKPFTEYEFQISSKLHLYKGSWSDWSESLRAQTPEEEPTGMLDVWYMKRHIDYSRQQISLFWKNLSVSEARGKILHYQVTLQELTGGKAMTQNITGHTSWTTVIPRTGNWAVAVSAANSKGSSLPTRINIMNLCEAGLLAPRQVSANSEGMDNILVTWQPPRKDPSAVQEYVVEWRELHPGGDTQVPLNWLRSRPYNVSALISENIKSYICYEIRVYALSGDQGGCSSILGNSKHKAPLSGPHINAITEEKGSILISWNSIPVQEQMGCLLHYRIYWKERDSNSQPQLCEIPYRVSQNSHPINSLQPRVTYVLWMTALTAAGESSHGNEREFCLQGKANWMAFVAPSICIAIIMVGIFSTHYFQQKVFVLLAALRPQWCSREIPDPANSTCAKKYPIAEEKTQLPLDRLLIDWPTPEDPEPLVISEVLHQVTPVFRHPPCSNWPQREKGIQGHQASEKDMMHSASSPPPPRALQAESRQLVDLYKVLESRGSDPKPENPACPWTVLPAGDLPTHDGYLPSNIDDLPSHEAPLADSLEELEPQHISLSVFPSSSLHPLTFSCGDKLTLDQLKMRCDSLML

- EC50: 4.5 nM
B1: Reference IL12 construct (SEQ ID NO: 4) (ligand)
chain: MWELEKDVYVVEVDWTPDAPGETVNLTCDTPEEDDITWTSDQRHGVIGSGKTLTITVKEFLDAGQYTCHKGGETLSHSHLLLHKKENGIWSTEILKNFKNKTFLKCEAPNYSGRFTCSWLVQRNMDLKFNIKSSSSSPDSRAVTCGMASLSAEKVTLDQRDYEKYSVSCQEDVTCPTAEETLPIELALEARQQNKYENYSTSFFIRDIIKPDPPKNLQMKPLKNSQVEVSWEYPDSWSTPHSYFSLKFFVRIQRKKEKMKETEEGCNQKGAFLVEKTSTEVQCKGGNVCVQAQDRYYNSSCSKWACVPCRVRSGGGGSGGGGSGGGGSRVIPVSGPARCLSQSRNLLKTTDDMVKTAREKLKHYSCTAEDIDHEDITRDQTSTLKTCLPLELHKNESCLATRETSSTTRGSCLPPQKTSLMMTLCLGSIYEDLKMYQTEFQAINAALQNHNHQQIILDKGMLVAIDELMQSLNHNGETLRQKPPVGEADPYRVKMKLCILLHAFSTRVVTINRVMGYLSSAHHHHHHHH
